# Assay results as given in the RNAGym collection of RNA variant scans (doi:10.7554/elife.80360).
# B1: Hairpin Ribozyme (parent)
# chain: GUCCUCUUUCACGUGCGCGUGAAAGAGAGAAGUGAACCAGAGAAACACACGUUGUGGUAUAUUACCUGGUA
# Variants of: B1
# Experiment: self-cleavage, relative activity (ratio to wild type); higher = more cleavage; co-transcriptional
row,Variant,self-cleavage
1,CUCCUCUUUCACGUGCGCGUGAAAUAGAGAAGUGAACCAGAGAAACACACGUUGUGGUAUAUUACCUGGUA [G1C G25U],0.211
2,CUCCUCUUUCACGUGCGCGUGAAAGAGAGAAGUGAACCAGAGAAACACACGUUGUGGUAUAUUACCUGGAA [G1C U70A],0.208
3,CUCCUCUUUCACGUGCGCGUGAAAGAGAGAAGUGAACCAGAGAAACACACGUUGUGGUAUAUUACCUGGGA [G1C U70G],0.166
4,CUCCUCUUUCACGUGCGCGUGAAAGAGAGAAGUGAACCAGAGAAACACACGUUGUGGUAUAUUACCUGGCA [G1C U70C],0.155
5,UUCCUCUUUCACGUGCGCGUGAAAGAGAGGAGUGAACCAGAGAAACACACGUUGUGGUAUAUUACCUGGUA [G1U A30G],0.105
6,UUCCUCUUUCACGUGCGCGUGAAAGAGAGAAGUGUACCAGAGAAACACACGUUGUGGUAUAUUACCUGGUA [G1U A35U],0.126
7,CUCCUCUUUCACGUGCGCGUGAAAGAGAGAACUGAACCAGAGAAACACACGUUGUGGUAUAUUACCUGGUA [G1C G32C],0.116
8,CUCCUCUUUCACGUGCGCGUGAAAGAGAAAAGUGAACCAGAGAAACACACGUUGUGGUAUAUUACCUGGUA [G1C G29A],0.174
9,UUCAUCUUUCACGUGCGCGUGAAAGAGAGAAGUGAACCAGAGAAACACACGUUGUGGUAUAUUACCUGGUA [G1U C4A],0.202
10,UUCCUCUUUCACGUGCGCGUGAUAGAGAGAAGUGAACCAGAGAAACACACGUUGUGGUAUAUUACCUGGUA [G1U A23U],0.11
11,UUCCUCUUUCACGUGCGCGUGAAAGAGAGAAGUGAACCAGAGAAACACACGUUGUGGUAUAUUAACUGGUA [G1U C65A],0.0897
12,CCCCUCUUUCACGUGCGCGUGAAAGAGAGAAGUGAACCAGAGAAACACACGUUGUGGUAUAUUACCUGGUA [G1C U2C],0.233
13,UUCCUCUUUCACGUGCGCGUGAAAGAGAGAAGUGAACCAGAGAAAGACACGUUGUGGUAUAUUACCUGGUA [G1U C46G],0.16
14,UUCCUCUUUCACGUGCGCGUGAAAGAGAGAAGUGAACCAGAGAAAUACACGUUGUGGUAUAUUACCUGGUA [G1U C46U],0.0565
15,UUCCUCUUUCACGUGCGCGUGAAAGAGAGAAGUGAACCAGAGAAACACAAGUUGUGGUAUAUUACCUGGUA [G1U C50A],0.189
16,CUCCUCUUUCACGUGCUCGUGAAAGAGAGAAGUGAACCAGAGAAACACACGUUGUGGUAUAUUACCUGGUA [G1C G17U],0.204
17,UUCCUCUUUCACGUGCGUGUGAAAGAGAGAAGUGAACCAGAGAAACACACGUUGUGGUAUAUUACCUGGUA [G1U C18U],0.121
18,UUCCUCUUUCACGUGCGCGUGAAAGAUAGAAGUGAACCAGAGAAACACACGUUGUGGUAUAUUACCUGGUA [G1U G27U],0.199
19,CUCCUCUUUCACGUGCGCGUGAAAGAGAGAAGUGAACCAGAGAAACACACGUUGUGUUAUAUUACCUGGUA [G1C G57U],0.0983
20,UUCCUCUUUCACGUGCGCGUGAAAGAGAGAAGUGAACCAGAGAAACACACGUUGUGGUUUAUUACCUGGUA [G1U A59U],0.195
21,UUCCUCUUUCACGUGCGCGUGAAAGAGAGAAGUGAACCAGAGAAACACACGUUGUGGUCUAUUACCUGGUA [G1U A59C],0.183
22,UUCCUCUUUCACGUGCGCGUGAAAGAGAGAAGUGAACCAGAGAAACACACGUUGUGGUAUAUUGCCUGGUA [G1U A64G],0.0823
23,CUCCUCUUUCACGUGCGCGUGAAAGAGAGAAGUGAACCAGAGAAACAAACGUUGUGGUAUAUUACCUGGUA [G1C C48A],0.129
24,UUCCUCUUUCACGUGCGCGUGAAAGAGGGAAGUGAACCAGAGAAACACACGUUGUGGUAUAUUACCUGGUA [G1U A28G],0.0771
25,CUCCUCUUUCACGGGCGCGUGAAAGAGAGAAGUGAACCAGAGAAACACACGUUGUGGUAUAUUACCUGGUA [G1C U14G],0.101
26,UUCCUCUUUCACGUGCGCGUGAAAGAGAGAAGUGAACCAGAGAAACAUACGUUGUGGUAUAUUACCUGGUA [G1U C48U],0.155

row,Variant,self-cleavage
1,UUCCUCUUUCAUGUGCGCGUGAAAGAGAGAAGUGAACCAGAGAAACACACGUUGUGGUAUAUUACCUGGUA [G1U C12U],0.17
2,UUCCUCUUUCAGGUGCGCGUGAAAGAGAGAAGUGAACCAGAGAAACACACGUUGUGGUAUAUUACCUGGUA [G1U C12G],0.171
3,CUCCUCUUUCACGUGCGCGUGAAAGAGAGAAGUGAAGCAGAGAAACACACGUUGUGGUAUAUUACCUGGUA [G1C C37G],0.0832
4,CUCCUCUUUCACGUGCGCGUGAAAGAGAGAAGUGAACCAGAGAAACACACGUUGUGGUAUAUUACAUGGUA [G1C C66A],0.351
5,CUCCUCUUUCACGUGCGCGUGAAAGAGAGAAGUGAACCAGAGAAACACACGUUGUGGUAUAUUACUUGGUA [G1C C66U],0.12
6,UUCCUCUUUCACGUGCGCGUGAAAGAGAGAAGUGAACCAGAGAAACACACGUUGUGGUAUAUUACGUGGUA [G1U C66G],0.117
7,UUCCUCUUUCACGUGCGCGUGAAAGAGAGAAGUGAACCAGAGAAACACACGUUGUGGUAUAUUACAUGGUA [G1U C66A],0.242
8,UUCCUCUUUCACGUGCGCGUGAAAGAGAGAAGUGAAACAGAGAAACACACGUUGUGGUAUAUUACCUGGUA [G1U C37A],0.158
9,UUCCUCUUUCACGUGCGCGUGAAAGAGAGAAGUGAAGCAGAGAAACACACGUUGUGGUAUAUUACCUGGUA [G1U C37G],0.0694
10,UUCCUCUUUCACGUGCGCGUGAAAGAGAGAAGUGAAUCAGAGAAACACACGUUGUGGUAUAUUACCUGGUA [G1U C37U],0.0964
11,CUCCUCUUUCACGUGCGCGUGAAAGAGAGAAGUGAACCAGAGAAACACACGUGGUGGUAUAUUACCUGGUA [G1C U53G],0.046
12,UUCCUCUUUCACGUGCGCGUGAAAGAGAGAAGUGAACCAGUGAAACACACGUUGUGGUAUAUUACCUGGUA [G1U A41U],0.0959
13,UUCCUCUUUCACGUGCGCGUGAAAGAGAGAAGUGAACCAGCGAAACACACGUUGUGGUAUAUUACCUGGUA [G1U A41C],0.0514
14,CUCCUCUUUCACGUGCGCGUGAAAGAGAGAAGUGAACCAGAGAAACACACGGUGUGGUAUAUUACCUGGUA [G1C U52G],0.206
15,CUCCUCUUUCACGUGCGCGUGAAAGAGAGAAGUGAACCAGAGAAACACACGUUGUGGAAUAUUACCUGGUA [G1C U58A],0.131
16,UUCCUCUUUCACGUUCGCGUGAAAGAGAGAAGUGAACCAGAGAAACACACGUUGUGGUAUAUUACCUGGUA [G1U G15U],0.102
17,UUCCUCUUUCACGUCCGCGUGAAAGAGAGAAGUGAACCAGAGAAACACACGUUGUGGUAUAUUACCUGGUA [G1U G15C],0.0726
18,CUCCUCUUUCACGUGCGCGUGAAAGAGAGAAGAGAACCAGAGAAACACACGUUGUGGUAUAUUACCUGGUA [G1C U33A],0.0439
19,CUCCUCUUUCACGUGCGCGUGAAAGAGAGAAGUGAACCAGAGAAACACACGUUGUGGUAUAUUAUCUGGUA [G1C C65U],0.188
20,CUCCUCUUUCACGUGCGCGUGAAAGAGAGAAGUGAACCAGAGAAACACACGUUGUGGUAUAUUACCUCGUA [G1C G68C],0.379
21,CUCCUCUUUCACGUGCGCGUGAAAGAGAGAAGUGAACCAGAGAAACACACGUUGUGGUAUAUUACCUUGUA [G1C G68U],0.209
22,UUCCUCUUUCACGUGCGCGUGAAAGAGAGAUGUGAACCAGAGAAACACACGUUGUGGUAUAUUACCUGGUA [G1U A31U],0.0996
23,CUCCUCUUUCACGUGCGCGUGAAAGAGAGAAGUGAACCAGAGAAACACACGUUGUGGUAUAUUACCAGGUA [G1C U67A],0.109
24,CUCCUCUUUCACGUGCGCGUGAAAGAGAGAAGUAAACCAGAGAAACACACGUUGUGGUAUAUUACCUGGUA [G1C G34A],0.162
25,CUCCUCUUUCACGUGCGCGUGAAAGAGAGAAGUCAACCAGAGAAACACACGUUGUGGUAUAUUACCUGGUA [G1C G34C],0.211
26,CUCCUCUUUCACGUGCGCGUGAAAGAUAGAAGUGAACCAGAGAAACACACGUUGUGGUAUAUUACCUGGUA [G1C G27U],0.142

row,Variant,self-cleavage
1,UUCCUCUUUCACGUGCGCGUGAAAGAGAGAAGUGAACUAGAGAAACACACGUUGUGGUAUAUUACCUGGUA [G1U C38U],0.127
2,UUCCUCUUUCACGUGCGCGUGAAAGAGAGAAGUGAACGAGAGAAACACACGUUGUGGUAUAUUACCUGGUA [G1U C38G],0.0981
3,CUCCUCUUUCACGUGCGCGUGAAAGAGAGAAGUGAACCAGAGAAACACACGUUAUGGUAUAUUACCUGGUA [G1C G54A],0.141
4,UUCCUCUUUCACGUGCGCGUGAAAGGGAGAAGUGAACCAGAGAAACACACGUUGUGGUAUAUUACCUGGUA [G1U A26G],0.314
5,UUCCUCUUUCACGUGCGCGUGAAAGAGAGAAGUGAUCCAGAGAAACACACGUUGUGGUAUAUUACCUGGUA [G1U A36U],0.224
6,CUCCUCUUUCACGUGCGCGUGAAAGAGAGAAGUGAACCAGAGAAACACAGGUUGUGGUAUAUUACCUGGUA [G1C C50G],0.171
7,CUCCUCUUUCACGUGCGCGGGAAAGAGAGAAGUGAACCAGAGAAACACACGUUGUGGUAUAUUACCUGGUA [G1C U20G],0.0342
8,CUCCCCUUUCACGUGCGCGUGAAAGAGAGAAGUGAACCAGAGAAACACACGUUGUGGUAUAUUACCUGGUA [G1C U5C],0.361
9,UUCCUCUUUCACGUGCGCGUGGAAGAGAGAAGUGAACCAGAGAAACACACGUUGUGGUAUAUUACCUGGUA [G1U A22G],0.101
10,UUCCUCUUUCACGUGCGCGUGUAAGAGAGAAGUGAACCAGAGAAACACACGUUGUGGUAUAUUACCUGGUA [G1U A22U],0.119
11,UUCCUAUUUCACGUGCGCGUGAAAGAGAGAAGUGAACCAGAGAAACACACGUUGUGGUAUAUUACCUGGUA [G1U C6A],0.138
12,UUCCUGUUUCACGUGCGCGUGAAAGAGAGAAGUGAACCAGAGAAACACACGUUGUGGUAUAUUACCUGGUA [G1U C6G],0.228
13,CUCCUCUUACACGUGCGCGUGAAAGAGAGAAGUGAACCAGAGAAACACACGUUGUGGUAUAUUACCUGGUA [G1C U9A],0.117
14,CUCCUCUUGCACGUGCGCGUGAAAGAGAGAAGUGAACCAGAGAAACACACGUUGUGGUAUAUUACCUGGUA [G1C U9G],0.125
15,CUCCUCUUUCACGUGCGCGUGAAAGAGAGAAGUGAACCAGAGAAACACACGUUGUGGUACAUUACCUGGUA [G1C U60C],0.314
16,UUCCUCUUUCACGUGCGCGUGAAAGAGAGAAGUGAACCAGAGAAACACGCGUUGUGGUAUAUUACCUGGUA [G1U A49G],0.234
17,UUCCUCUUUCACGUGCGCGUGAAAGAGAAAAGUGAACCAGAGAAACACACGUUGUGGUAUAUUACCUGGUA [G1U G29A],0.08
18,CUCCUCUUUCACGUGCGCGUGAAAGAGAGAAGUGAACCAGAGAAACACACGUUGUGGUAUAUUACCUGCUA [G1C G69C],0.303
19,UUCCUCUUUCACGUGCGCGUGAAAGAGAGAAGUGAACCAGAGAAACACACGUUGUGGUAUAUUACCUGGUG [G1U A71G],0.115
20,CUCCUCUUUCACGUGCGCAUGAAAGAGAGAAGUGAACCAGAGAAACACACGUUGUGGUAUAUUACCUGGUA [G1C G19A],0.197
21,UUCCUCUUUCACGUGGGCGUGAAAGAGAGAAGUGAACCAGAGAAACACACGUUGUGGUAUAUUACCUGGUA [G1U C16G],0.127
22,UUCCUCUUUCACGUGUGCGUGAAAGAGAGAAGUGAACCAGAGAAACACACGUUGUGGUAUAUUACCUGGUA [G1U C16U],0.0937
23,UUCCUCUUUCACGUGCGCGUGAAAGAGAGAAGUGAACCAGAGAGACACACGUUGUGGUAUAUUACCUGGUA [G1U A44G],0.0639
24,CUCCUCUCUCACGUGCGCGUGAAAGAGAGAAGUGAACCAGAGAAACACACGUUGUGGUAUAUUACCUGGUA [G1C U8C],0.172
